# Patent US8703459B2, “Catalytic domains of beta(1,4)-galactosyltransferase I having altered metal ion specificity” (The United States of America, as represented by the …, priority 2003, dated 2014)
# Changes are numbered by the printed parent chain. Names and notes keep the numbering of the source. Marks after values point to notes of the source that are not given here.
# B1: M344E-Gal-T1: bovine β4Gal-T1 catalytic domain (C342T) with Met344 mutated to glutamic acid (protein, listed as Bos taurus)
# chain: MKFREPLLGGSAAMPGASLQRACRLLVAVCALHLGVTLVYYLAGRDLRRLPQLVGVHPPLQGSSHGAAAIGQPSGELRLRGVAPPPPLQNSSKPRSRAPSNLDAYSHPGPGPGPGSNLTSAPVPSTTTRSLTACPEESPLLVGPMLIEFNIPVDLKLIEQQNPKVKLGGRYTPMDCISPHKVAIIILFRNRQEHLKYWLYYLHPMVQRQQLDYGIYVINQAGESMFNRAKLLNVGFKEALKDYDYNCFVFSDVDLIPMNDHNTYRCFSQPRHISVAMDKFGFSLPYVQYFGGVSALSKQQFLSINGFPNNYWGWGGEDDDIYNRLAFRGMSVSRPNAVIGKCREIRHSRDKKNEPNPQRFDRIAHTKETMLSDGLNSLTYMVLEVQRYPLYTKITVDIGTPS
# B2: M344Q: Met344 mutant of β4Gal-T1, Met344 to Gln (protein, listed as Bos taurus)
# chain: B1 chain with E344Q
# B3: M344A: Met344 mutant of β4Gal-T1, Met344 to Ala (protein, listed as Bos taurus)
# chain: B1 chain with E344A
# B4: M344S: Met344 mutant of β4Gal-T1 (protein, listed as Bos taurus)
# chain: B1 chain with E344S
# Test: β4Gal-T enzyme assay, specific activity in the presence of various metal ions
# Assay type: biochemical, bovine
# Settings: 0.1 mM Co^2+, 500 μM UDP-Gal, 25 mM GlcNAc
# Description: Protein concentrations were measured using the Bio-Rad Protein Assay kit, based on the method of Bradford and further verified on SDS-PAGE gels using standard protein concentration markers. An in vitro assay procedure for Gal-T1 has been reported previously (Ramakrishnan et al., J. Mol. Biol., 310:205 (2001)). The activities were measured using UDP-Gal as sugar nucleotide donor, and GlcNAc as the acceptor sugar. For the specific activity measurements, a 100 μL incubation mixture containing 25 mM GlcNAc, 5 mM MnCl2 or MgCl2, 20 mM Tris-HCl pH 8.0, 500 μM UDP-Gal, 500 ng M344H-Gal-T1 or 30 ng of C342T-Gal-T1 and 0.5 μCi ^3H-UDP-Gal was used for each Gal-T reaction. The incubation was carried out at 30° C. for 15 minutes. The reaction was terminated by adding of 200 μl cold water, and the mixture was passed through a 0.5 mL bed volume column of AG 1-X8 […] resin (Bio-Rad) to remove any unreacted ^3H-UDP-Gal. The column was washed successively with 300, 400 and 500 μl of cold water, and the column flow-through was diluted with Biosafe scintillation fluid; radioactivity was measured with a Beckman counter. A reaction without the acceptor sugar was used as a control. Only 0.1 mM concentration of ZnCl2 or CoCl2 was used whenever Zn^2+ or Co^2+ was used during the enzyme assay.
row,Molecule,Catalytic Activity in the Presence of Various Metal Ions: Co
1,B1,0.24 picomoles per minute per nanogram
2,B2,0.80^b picomoles per minute per nanogram
3,B3,0.61^b picomoles per minute per nanogram
4,B4,0.41 picomoles per minute per nanogram

# Same assay, conditions: 0.1 mM Zn^2+, 500 μM UDP-Gal, 25 mM GlcNAc
row,Molecule,Catalytic Activity in the Presence of Various Metal Ions: Zn
1,B1,0.27 picomoles per minute per nanogram
2,B2,0.71 picomoles per minute per nanogram
3,B3,0.64 picomoles per minute per nanogram
4,B4,0.40 picomoles per minute per nanogram

# Same assay, conditions: 5 mM metal ion, 500 μM UDP-Gal, 25 mM GlcNAc
Molecule,Catalytic Activity in the Presence of Various Metal Ions: Ca,Catalytic Activity in the Presence of Various Metal Ions: Mg,Catalytic Activity in the Presence of Various Metal Ions: Mn,Catalytic Activity in the Presence of Various Metal Ions: Sr
B1,0.01 picomoles per minute per nanogram,0 picomoles per minute per nanogram,0.32 picomoles per minute per nanogram,0.02 picomoles per minute per nanogram
B2,0 picomoles per minute per nanogram,0 picomoles per minute per nanogram,1.91 picomoles per minute per nanogram,0 picomoles per minute per nanogram
B3,0 picomoles per minute per nanogram,0 picomoles per minute per nanogram,4.16 picomoles per minute per nanogram,0 picomoles per minute per nanogram
B4,0 picomoles per minute per nanogram,0 picomoles per minute per nanogram,1.97 picomoles per minute per nanogram,0 picomoles per minute per nanogram

# Test: Metal ion activation curve, metal binding constants for Mn^2+
# Assay type: biochemical, bovine
# Settings: Mn^2+
# Text: The activation curve of M344E-Gal-T1, using Mn^2+, is strikingly different from that of the wild-type enzyme (FIGS. 1A and 1B). In contrast to the wild type enzyme, the velocity curve obtained with the Mn^2+ concentration for the M344E-Gal-T1 mutant is not sigmoidal. On the other hand, the same curve for the M344H-Gal-T1 mutant in the presence of the Mg^2+ is sigmoidal (FIG. 1C). The observation that activation of the wild type enzyme by metal ions is sigmoidal has been interpreted as involving two metal binding sites in the enzyme: one with high affinity (Kd1), which is associated with low velocity, and a second site with low affinity (Kd2), which is associated with high velocity (Powell and Brew, J. Biol. Chem., 251:3645 (1976); Boeggeman and Qasba, Glycobiology, 12:395 (2002)). […] The values of the dissociation constant (Kd) for Mn^2+ of the mutant are quite different from that of the wild type (Table IV).
# The enzyme activation data at various concentrations of Mg^2+ were fitted to an equation describing metal binding to a high affinity site (K1) to generate an enzyme form with a low kcat (V1) and to a second, lower affinity site (K2) to generate a form with a higher kcat (V2) (Boeggeman and Qasba, Glycobiology, 12:395 (2002)): […]
row,K1 compared with binding to the primary site of the wild type,Molecule
1,fifty-fold lower,B1

# Same assay, conditions: single metal binding site model, derived from FIG. 1B; read-out: binding constant K1 for Mn^2+
row,Kd [nM],Molecule
1,500,B1
